Test results from US6613531B2, “Sigma binding region of RNA polymerase and uses thereof” (priority 2000, dated 2003).

Experiments:
labeled σ^70 and β′ = labeled σ^70 and β′ (Escherichia coli, UniProt P00579+P0A8T7, C132S/C291S/C295S/S442C); details: 10 nM labeled σ^70, 50 nM labeled β′
Protocol: The assay was performed in NTG-buffer (200 μL total volume) plus 2.5% DMSO (when insoluble additives were used) with 10 nM σ^70* (labeled protein) and 50 nM β′* (labeled protein). Labeled σ^70 was added first to the assay, then the potential inhibitor and denatured labeled β′ was added last, mixing the solution well after the addition of each component. The mixture was incubated for 5 minutes at RT and measured in a 96-well plate (Costar 3650) with a multi-plate reader (Wallac, VictorV^2 1420). For this time-resolved fluorescence measurement, the manufacturer's protocol (LANCE high count 615/665) was used (excitation with 1000 flashes, at 325 nm, measurement was delayed by 100 μs and acquired for 50 μs at 615 and 665 nm). […] The IC5-emission is corrected for the very small amount of signal from the Eu-emission band (by cross talk measurement of a standard) and then divided by the intensity of the Eu signal. […] The nature of this method allows the differentiation of the loss of signal due to real inhibition from simple absorption caused by the inner filter effect from the substance.

σ^70 [1] = target: T1, σ^70 (Escherichia coli, UniProt P00579); details: for ability to bind σ^70 compared to wt β′1-319 fragment: normalized to amount of fragment
Protocol: Cells containing truncated β′ expression plasmids pTA610-620 were grown to an A600 of 0.6-0.8 and induced with 1 mM IPTG. The cells were grown for an additional 30 minutes. A 200 μl sample was removed and sonicated 3×30 seconds. Twenty μl of glycerol and 20 μl of SDS-sample buffer were added and heated for 2 minutes at 95° C. then stored at −20° C. until use. The lysates were separated by SDS-PAGE. The proteins were electrophoretically transferred onto 0.05 μm nitrocellulose.
The blot was dried and the signal was visualized with a PhosphorImager and quantitated with IMAGEQUANT software (Molecular Dynamics).
This method was initially employed to detect the functionality of the β′ mutants. The mutations were cloned into a gene fragment coding for amino acid residues 1-319 of the β′ subunit. […] Samples were analyzed for binding σ^70 by far Western analysis The amount of σ^70 probe bound by each β′1-319 mutant fragment was compared to the amount bound by wt β′1-319 fragment. Each signal was normalized to the amount of β′1-319 contained in the supernatant as determined by Western blotting.
Target sequence in this assay (P00579 whole entry, the tested form may be a part): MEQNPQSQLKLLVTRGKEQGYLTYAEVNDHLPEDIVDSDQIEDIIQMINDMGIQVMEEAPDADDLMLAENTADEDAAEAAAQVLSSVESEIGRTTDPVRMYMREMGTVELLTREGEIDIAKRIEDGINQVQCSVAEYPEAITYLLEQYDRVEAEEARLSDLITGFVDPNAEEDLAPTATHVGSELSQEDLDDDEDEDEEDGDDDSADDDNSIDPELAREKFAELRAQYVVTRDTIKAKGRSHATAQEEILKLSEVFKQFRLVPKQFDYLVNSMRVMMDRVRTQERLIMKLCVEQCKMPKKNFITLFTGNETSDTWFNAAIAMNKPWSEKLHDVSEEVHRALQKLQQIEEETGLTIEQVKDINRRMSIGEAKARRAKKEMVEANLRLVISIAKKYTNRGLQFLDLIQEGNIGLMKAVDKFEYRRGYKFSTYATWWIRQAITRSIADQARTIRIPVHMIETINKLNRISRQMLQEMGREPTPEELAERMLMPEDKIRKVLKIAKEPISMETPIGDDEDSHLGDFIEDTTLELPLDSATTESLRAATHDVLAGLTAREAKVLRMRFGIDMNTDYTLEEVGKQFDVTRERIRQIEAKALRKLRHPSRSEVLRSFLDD

strain RL602 = experiment: Growth with plasmid-derived wild type or mutant β′ as sole source of β′ subunit; type: cell-based; details: 42° C., mutant β′ as sole source of β′
Protocol: Plasmids pTA577, 600-609 (0.1 μg) were transformed into strain RL602 (Weilbaecher et al., 1994; Ridley et al., 1982). After heat shock and incubation on ice, 300 μl of LB was added to the 50 μl cell mixture. Ten μl of the transformation reaction was spotted onto LB plates plus ampicillin (100 μg/ml) and incubated at 30° C. Another 10 μl was spotted onto plates and incubated at 42° C. The plates were incubated between 24-48 hours and assessed for growth.
To assess the importance of the σ^70 binding site in vivo, the ability of mutant β′ subunits to function as the cell's sole source of β′ was assessed. Plasmids containing either mutant or wild type, full length β′ were transformed into strain RL602 (Weilbaecher et al., 1994; Ridley et al., 1982). The chromosomal rpoC gene of RL602 has an amber mutation that prevents functional β′ from being produced in the absence of a suppressor tRNA. RL602 also has a chromosomal, temperature-sensitive, amber suppressor. At the permissive temperature (30° C.) the amber suppressor is active and allows chromosomal β′ to be produced and the cell can grow. The amber suppressor is not active at the non-permissive temperature (42° C.). Therefore, at 42° C., chromosomal β′ is not made and the cell cannot grow without another source of β′. If the plasmid-derived β′ can complement the loss of β′, the cells will grow and form colonies on plates at the non-permissive temperature. If the mutant β′ cannot complement, there will be no growth on the plates at this temperature.

σ^70 [2] = target: T1, σ^70; details: for Eσ^70 formation / binding σ^70: log and stationary phase samples
Protocol: (§1) One L flasks containing 200 ml of LB with ampicillin (100 μg/ml) and IPTG (0.15 mM) were inoculated with 200 μl from an overnight culture of cells containing plasmids pTA561, 577, 600-609. The cultures were grown at 37° C. with shaking until the A600=0.4 for log phase assays and 2 hours longer (A600 about 2.0) for the early stationary phase assays. The cells were harvested by centrifugation at 6,000 rpm for 10 minutes and stored at −20° C. until use. The cell pellets were resuspended in 5 ml TE (10 mM Tris-HCl, pH 7.9 and 0.1 mM EDTA) plus 0.15 M NaCl and lysozyme (0.1 mg/ml) then incubated on ice for 15 minutes. The cells were sonicated 2×30 seconds and centrifuged for 25 minutes at 27,000×g to pellet the insoluble material. The supernatant was loaded onto a 1.5 ml immunoaffinity column containing the polyol-responsive, anti-β′ monoclonal antibody (MAb), NT73 (Thompson et al., 1992). The column was washed with 15 ml TE plus 0.15 M NaCl followed by a second wash with 10 ml TE plus 0.5 M NaCl. The protein was eluted from the column with 4 ml TE plus 0.7 M NaCl and 30% propylene glycol. The eluted sample (4 ml) was diluted with 6 ml buffer B (20 mM Tris-HCl, pH 7.9, 500 mM NaCl, 5 mM imidazole, 0.1% (v/v) Tween 20, and 10% (v/v) glycerol) and loaded (2×) onto 500 μl of Ni^2+-NTA resin. The resin was washed (2×) with 5 ml of buffer B and eluted with 0.5 ml buffer B plus 0.25 M imidazole. Samples from the elution fractions were assayed by Western blot as described above using Mabs to each subunit or σ factor. The secondary antibodies were horseradish peroxidase-labeled goat antimouse IgG antibodies and the signal was generated using the ECL+ substrate system (Amersham) and detected using the STORM FluoroImager and quantitated with IMAGEQUANT software (Molecular Dynamics).
(§2) To evaluate the potential assembly defects caused by the various mutations, His6-tagged, mutant β′ subunits were expressed in cells that were also expressing wild type, chromosomal β′ proteins. A Ni^2+-NTA column was used to purify the mutant β′ subunits together with associated cell proteins. An immunoaffinity column was used to clean-up the samples in order to reduce any non-specific binding to the Ni^2+-NTA column.
Target sequence in this assay (P00579 whole entry, the tested form may be a part): as above
Target sequence in this assay (P0A8T7 whole entry, further chain, the tested form may be a part): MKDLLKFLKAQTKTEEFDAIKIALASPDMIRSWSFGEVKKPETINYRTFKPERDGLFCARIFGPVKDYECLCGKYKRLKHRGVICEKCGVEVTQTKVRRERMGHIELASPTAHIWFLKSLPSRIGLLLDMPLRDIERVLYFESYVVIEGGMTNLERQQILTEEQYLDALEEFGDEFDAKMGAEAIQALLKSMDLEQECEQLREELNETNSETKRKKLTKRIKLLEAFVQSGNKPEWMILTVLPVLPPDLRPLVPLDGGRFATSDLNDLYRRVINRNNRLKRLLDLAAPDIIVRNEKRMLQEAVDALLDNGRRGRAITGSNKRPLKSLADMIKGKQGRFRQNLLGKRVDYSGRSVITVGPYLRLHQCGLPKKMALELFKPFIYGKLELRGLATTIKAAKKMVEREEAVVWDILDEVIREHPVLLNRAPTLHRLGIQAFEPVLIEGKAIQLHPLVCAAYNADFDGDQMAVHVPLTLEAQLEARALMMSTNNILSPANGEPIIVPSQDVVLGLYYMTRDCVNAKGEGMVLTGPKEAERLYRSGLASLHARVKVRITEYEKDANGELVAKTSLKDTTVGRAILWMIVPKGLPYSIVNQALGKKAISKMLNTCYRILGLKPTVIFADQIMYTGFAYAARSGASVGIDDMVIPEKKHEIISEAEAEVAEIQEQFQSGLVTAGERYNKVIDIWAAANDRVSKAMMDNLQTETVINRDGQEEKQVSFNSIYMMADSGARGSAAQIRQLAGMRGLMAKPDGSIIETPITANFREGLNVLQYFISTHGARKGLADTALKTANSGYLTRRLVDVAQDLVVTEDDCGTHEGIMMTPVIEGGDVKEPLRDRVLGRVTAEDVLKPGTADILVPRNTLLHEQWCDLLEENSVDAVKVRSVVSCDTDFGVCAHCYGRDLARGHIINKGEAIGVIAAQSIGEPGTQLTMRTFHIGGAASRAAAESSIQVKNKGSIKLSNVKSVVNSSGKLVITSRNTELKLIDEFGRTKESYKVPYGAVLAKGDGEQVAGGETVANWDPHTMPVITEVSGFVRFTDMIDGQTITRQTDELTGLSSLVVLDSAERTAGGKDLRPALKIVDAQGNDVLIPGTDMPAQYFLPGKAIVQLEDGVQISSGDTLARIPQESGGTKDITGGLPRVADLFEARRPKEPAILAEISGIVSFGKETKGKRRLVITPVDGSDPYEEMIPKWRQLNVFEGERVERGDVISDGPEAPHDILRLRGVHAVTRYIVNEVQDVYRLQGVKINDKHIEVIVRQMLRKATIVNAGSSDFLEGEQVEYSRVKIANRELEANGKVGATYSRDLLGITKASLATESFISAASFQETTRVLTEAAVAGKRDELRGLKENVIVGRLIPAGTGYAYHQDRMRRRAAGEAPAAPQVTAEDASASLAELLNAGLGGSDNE
Target sequence in this assay (P0A8V2 whole entry, further chain, the tested form may be a part): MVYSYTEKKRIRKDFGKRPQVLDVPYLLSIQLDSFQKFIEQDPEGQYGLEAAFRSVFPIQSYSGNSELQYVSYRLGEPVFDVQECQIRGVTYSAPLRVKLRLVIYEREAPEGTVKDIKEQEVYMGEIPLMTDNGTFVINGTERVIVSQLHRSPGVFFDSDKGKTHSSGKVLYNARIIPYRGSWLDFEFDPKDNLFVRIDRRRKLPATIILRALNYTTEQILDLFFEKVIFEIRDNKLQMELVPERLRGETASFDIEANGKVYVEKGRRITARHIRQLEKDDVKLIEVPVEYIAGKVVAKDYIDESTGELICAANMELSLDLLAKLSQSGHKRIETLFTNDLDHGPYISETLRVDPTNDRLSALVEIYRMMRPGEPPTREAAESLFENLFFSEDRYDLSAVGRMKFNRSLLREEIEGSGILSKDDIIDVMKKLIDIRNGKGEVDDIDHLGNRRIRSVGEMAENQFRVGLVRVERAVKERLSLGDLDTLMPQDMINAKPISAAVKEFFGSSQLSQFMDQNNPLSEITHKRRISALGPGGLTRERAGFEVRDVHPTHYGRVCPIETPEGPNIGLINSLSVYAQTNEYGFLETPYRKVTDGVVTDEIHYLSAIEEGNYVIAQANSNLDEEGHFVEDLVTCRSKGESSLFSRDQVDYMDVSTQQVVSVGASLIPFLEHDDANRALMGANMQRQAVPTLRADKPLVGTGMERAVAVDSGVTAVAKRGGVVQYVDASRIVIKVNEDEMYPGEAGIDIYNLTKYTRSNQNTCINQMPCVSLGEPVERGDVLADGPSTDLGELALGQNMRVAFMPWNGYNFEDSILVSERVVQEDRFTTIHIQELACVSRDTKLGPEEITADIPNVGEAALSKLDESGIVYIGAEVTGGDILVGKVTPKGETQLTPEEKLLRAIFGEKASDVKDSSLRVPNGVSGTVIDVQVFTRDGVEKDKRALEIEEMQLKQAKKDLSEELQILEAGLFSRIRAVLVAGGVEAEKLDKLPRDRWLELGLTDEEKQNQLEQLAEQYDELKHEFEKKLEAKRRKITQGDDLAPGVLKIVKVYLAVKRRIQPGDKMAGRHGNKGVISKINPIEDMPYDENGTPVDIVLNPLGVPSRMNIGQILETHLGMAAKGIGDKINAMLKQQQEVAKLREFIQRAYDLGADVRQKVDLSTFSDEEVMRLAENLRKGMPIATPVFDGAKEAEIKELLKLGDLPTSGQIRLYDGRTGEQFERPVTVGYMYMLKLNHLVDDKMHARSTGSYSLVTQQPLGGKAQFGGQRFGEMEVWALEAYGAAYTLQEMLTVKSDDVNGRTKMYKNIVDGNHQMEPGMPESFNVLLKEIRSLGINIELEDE
Target sequence in this assay (P0A7Z4 whole entry, further chain, the tested form may be a part): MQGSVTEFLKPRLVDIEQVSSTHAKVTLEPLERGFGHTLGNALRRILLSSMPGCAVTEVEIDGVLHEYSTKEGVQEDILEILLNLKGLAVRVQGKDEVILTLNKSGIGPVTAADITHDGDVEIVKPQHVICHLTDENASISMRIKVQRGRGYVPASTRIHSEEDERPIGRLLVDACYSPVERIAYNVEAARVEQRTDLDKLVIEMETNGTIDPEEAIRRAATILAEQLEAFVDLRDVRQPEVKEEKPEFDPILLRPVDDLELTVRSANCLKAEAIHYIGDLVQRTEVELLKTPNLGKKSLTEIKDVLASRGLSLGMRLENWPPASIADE

σ^32 = target: T2, σ^32 (Escherichia coli, UniProt P0AGB3)
T2 sequence (P0AGB3 whole entry, looked up): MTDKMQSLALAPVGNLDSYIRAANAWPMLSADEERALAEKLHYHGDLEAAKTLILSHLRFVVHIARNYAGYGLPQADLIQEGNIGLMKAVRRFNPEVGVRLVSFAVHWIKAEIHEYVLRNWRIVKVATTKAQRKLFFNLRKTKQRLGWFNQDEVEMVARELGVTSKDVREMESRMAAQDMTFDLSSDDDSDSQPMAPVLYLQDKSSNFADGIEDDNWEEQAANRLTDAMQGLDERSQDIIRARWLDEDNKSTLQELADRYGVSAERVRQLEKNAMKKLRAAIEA
Protocol: as §1, §2
(§3) All of the sample eluates were also assayed for the presence of any minor σ species.

σ^F = σ^F (Escherichia coli, UniProt P0AEM6); details: stationary phase samples
Protocol: as §1, §2, §3

Chain of labeled σ^70 and β′ (P00579 whole entry C132S/C291S/C295S/S442C, the tested form may be a part): as the sequence (P00579 whole entry, the tested form may be a part) above, with C132S, C291S, C295S, S442C counted along it
Chain of labeled σ^70 and β′ (P0A8T7 100-309): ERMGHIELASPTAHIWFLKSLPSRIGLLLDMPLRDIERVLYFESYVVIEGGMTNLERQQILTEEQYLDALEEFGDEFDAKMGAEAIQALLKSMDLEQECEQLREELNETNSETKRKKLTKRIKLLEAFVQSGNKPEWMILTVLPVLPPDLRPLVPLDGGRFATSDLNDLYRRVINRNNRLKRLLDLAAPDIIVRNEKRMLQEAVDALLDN

C[S+](C)[O-] [DMSO]
effect on LRET signal / competition (labeled σ^70 and β′): no significant effect

CCO [ethanol]
effect on LRET signal / competition (labeled σ^70 and β′): significant effect

A302D (FATSDLNDLYRRVINRNNRLKRLLDLAAPDIIVRNEKRMLQEDVDALLDN)
ability to bind σ^70 compared to wt β′1-319 fragment (σ^70 [1]): greatly reduced
growth at the non-permissive temperature (strain RL602): could not support growth
Eσ^70 formation / binding σ^70 (σ^70 [2]): defects in binding σ^70

E295K (FATSDLNDLYRRVINRNNRLKRLLDLAAPDIIVRNKKRMLQEAVDALLDN)
ability to bind σ^70 compared to wt β′1-319 fragment (σ^70 [1]): greatly reduced
growth at the non-permissive temperature (strain RL602): could not support growth
Eσ^70 formation / binding σ^70 (σ^70 [2]): defects in binding σ^70

K280E (FATSDLNDLYRRVINRNNRLERLLDLAAPDIIVRNEKRMLQEAVDALLDN)
ability to bind σ^70 compared to wt β′1-319 fragment (σ^70 [1]): no effects on binding
growth at the non-permissive temperature (strain RL602): no detectable effects on growth
Eσ^70 formation / binding σ^70 (σ^70 [2]): no detectable affect

N266D (FATSDLDDLYRRVINRNNRLKRLLDLAAPDIIVRNEKRMLQEAVDALLDN)
ability to bind σ^70 compared to wt β′1-319 fragment (σ^70 [1]): no effects on binding
growth at the non-permissive temperature (strain RL602): allowed some growth
Eσ^70 formation / binding σ^70 (σ^70 [2]): reduced

N309D (FATSDLNDLYRRVINRNNRLKRLLDLAAPDIIVRNEKRMLQEAVDALLDD)
ability to bind σ^70 compared to wt β′1-319 fragment (σ^70 [1]): binding more σ^70 than wild type
growth at the non-permissive temperature (strain RL602): no detectable effects on growth
Eσ^70 formation / binding σ^70 (σ^70 [2]): no detectable affect

Q300E (FATSDLNDLYRRVINRNNRLKRLLDLAAPDIIVRNEKRMLEEAVDALLDN)
increase in relative binding (σ^70 [1]; versus wild type β′1-319): greater than 7 fold
ability to bind σ^70 compared to wt β′1-319 fragment (σ^70 [1]): binding more σ^70 than wild type
growth at the non-permissive temperature (strain RL602): no detectable effects on growth
amount of σ^32 (σ^32; log phase samples): decreased amount
σ^32 levels (σ^32; stationary phase samples): greatly reduced
σ^F levels (σ^F): greatly reduced

R275Q (FATSDLNDLYRRVINQNNRLKRLLDLAAPDIIVRNEKRMLQEAVDALLDN)
ability to bind σ^70 compared to wt β′1-319 fragment (σ^70 [1]): greatly reduced
growth at the non-permissive temperature (strain RL602): could not support growth
Eσ^70 formation / binding σ^70 (σ^70 [2]): defects in binding σ^70

R293Q (FATSDLNDLYRRVINRNNRLKRLLDLAAPDIIVQNEKRMLQEAVDALLDN)
ability to bind σ^70 compared to wt β′1-319 fragment (σ^70 [1]): greatly reduced
growth at the non-permissive temperature (strain RL602): could support growth
Eσ^70 formation / binding σ^70 (σ^70 [2]): no detectable affect

R297S (FATSDLNDLYRRVINRNNRLKRLLDLAAPDIIVRNEKSMLQEAVDALLDN)
ability to bind σ^70 compared to wt β′1-319 fragment (σ^70 [1]): greatly reduced
growth at the non-permissive temperature (strain RL602): could support growth
Eσ^70 formation (σ^70 [2]; log phase samples): reduced
binding of the minor sigmas (σ^32; minor σ's at detectable levels: σ^32 and σ^F): increased binding

Y269A (FATSDLNDLARRVINRNNRLKRLLDLAAPDIIVRNEKRMLQEAVDALLDN)
ability to bind σ^70 compared to wt β′1-319 fragment (σ^70 [1]): no effects on binding
growth at the non-permissive temperature (strain RL602): no detectable effects on growth
Eσ^70 formation / binding σ^70 (σ^70 [2]): no detectable affect
